Patent publication US20230295310A1 (ABCELLERA BIOLOGICS, published 2023)
Changes are numbered by the printed parent chain. Each block holds one binder with its values, some of them ahead of it.

Experiments:
human CD3 = human CD3 (human, UniProt P07766 23-207; P04234 22-171; P09693 23-182); assay: cell-based or functional assay
human CD3e/d = target: T1, human CD3e/d (human, UniProt P07766 23-126; P04234 22-105); assay: SPR (Carterra LSA), mAb on chip
T1 construct: Bought soluble protein; also called hCD3e/d; human CD3/ed (Sino CT038-H2508H)
T1 sequence (P07766 23-126, chain 1 of 2): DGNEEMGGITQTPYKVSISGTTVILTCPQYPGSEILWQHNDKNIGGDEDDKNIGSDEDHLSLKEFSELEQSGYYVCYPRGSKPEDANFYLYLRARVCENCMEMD
T1 sequence (P04234 22-105, chain 2 of 2): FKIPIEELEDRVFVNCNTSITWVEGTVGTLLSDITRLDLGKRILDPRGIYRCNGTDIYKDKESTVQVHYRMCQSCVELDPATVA
Protocol: High-throughput surface plasmon resonance (SPR) coupled kinetic experiments were performed on a Carterra LSA® instrument equipped with an HC-30M chip type (Carterra, USA). The instrument uses two microfluidic modules, a single-flow cell (SFC) and a 96 printhead, to deliver samples to the chip surface via back-and-forth cycling of a fixed sample volume. An up to 384-ligand array is generated by docking the MFC onto each of the four nested print block locations in a serial manner.
The purified mAbs were immobilized on a Carterra LSA® HC-30M chip by direct coupling. The chip surface was first activated by flowing a freshly prepared 1:1:1 activation mix of 100 mM MES pH 5.5, 100 mM S-NHS, 400 mM EDC for 7 min. mAbs diluted to 10 μg/mL in 10 mM NaOAc pH 4.25+0.01% TWEEN®20 were then injected and printed onto the chip surface simultaneously using the MFC printhead for 10 min. Finally, the chip surface was quenched by flowing 1 M ethanolamine for 7 min (to block the excess reactive esters), followed by 2 wash steps of 15 s each in 25 mM MES pH 5.5. In addition to expressed and purified mAbs, relevant benchmarks and negative control mAbs were also printed on the chip surface.
The data were analyzed using the Carterra Kinetics analysis software. Briefly, the data were referenced with the interstitial reference spots and double-referenced to a buffer cycle, and then fit globally to a 1:1 Langmuir binding model to determine their apparent association (ka) and dissociation (kd) kinetic rate constants and binding affinity constants (KD).

Sequence of human CD3 (P07766 23-207, chain 1 of 3): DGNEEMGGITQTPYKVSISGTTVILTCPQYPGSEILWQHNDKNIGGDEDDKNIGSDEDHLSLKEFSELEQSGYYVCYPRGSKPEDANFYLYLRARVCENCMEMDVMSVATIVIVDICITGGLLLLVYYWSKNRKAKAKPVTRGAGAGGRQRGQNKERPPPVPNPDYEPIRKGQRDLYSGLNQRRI
Sequence of human CD3 (P04234 22-171, chain 2 of 3): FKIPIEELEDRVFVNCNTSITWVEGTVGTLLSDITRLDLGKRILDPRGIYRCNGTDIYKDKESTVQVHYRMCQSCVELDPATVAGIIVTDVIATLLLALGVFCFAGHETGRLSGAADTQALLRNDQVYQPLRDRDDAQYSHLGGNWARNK
Sequence of human CD3 (P09693 23-182, chain 3 of 3): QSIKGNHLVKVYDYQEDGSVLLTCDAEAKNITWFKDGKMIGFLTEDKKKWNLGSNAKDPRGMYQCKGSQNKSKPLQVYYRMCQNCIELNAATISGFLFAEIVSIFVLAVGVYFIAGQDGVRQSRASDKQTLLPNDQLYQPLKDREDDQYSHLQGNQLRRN

B1: mAb 120 (antibody, V domains shown)
VH: EVQLVESGGGLVKTGGSLRLSCVASGFSFKKAWMNWVRQAPGKGLEWVGRIKRNTDGGTADYAAPVKGRFTLSRDDSKKTLFLQMNSLKTEDTAVYYCTTLDSSSYYVGYYYMDVWGKGTTVTVSS
VL: DIQMTQSPSSVSASVGDRVTITCRASQDINNWLAWYQQKPGKAPKLLIYTASSLQSGVPSRFSGSGSGTDFTLTIGSLQPEDFATYYCQQAHSLPITFGQGTRLEIK
- CD4 EC50 (nM); CD69/CD25 on human T cells, plate-coated antibody (human CD3): 6.41 nM
- CD8 EC50 (nM); CD69/CD25 on human T cells, plate-coated antibody (human CD3): 6.46 nM

B5: mAb 123 (antibody, V domains shown)
VH: B1 VH with E1D, L11T, R53K, T55S, G57D, L72I, K79R, K89Q, Y106W, Y107F
VL: B1 VL with T20I, G68V, T69S, G76D
- CD4 EC50 (nM); CD69/CD25 on human T cells, plate-coated antibody (human CD3): 11.7 nM
- CD8 EC50 (nM); CD69/CD25 on human T cells, plate-coated antibody (human CD3): 11.6 nM

B6: mAb 119 (antibody, V domains shown)
VH: EVQLVESGGGLVQPGRSLRLSCAASGFTFDDYTMHWVRQAPGKGLEWVSGISWNSGSIGYADSVKGRFTISRDNAKNSLYLQMNSLRAEDTALYYCSKDSSGYGYYLNYSLDVWGKGTTVTVSS
VL: EIVMTQSPATLSVSPGERATLSCRASQSVSNLAWYQQKPGQAPRLLIYGASTRATGIPARFSGSGSGTEFTLTISSLQSEDFAVYYCQQYNNWPHFGQGTRLQIK
- CD4 EC50 (nM); CD69/CD25 on human T cells, plate-coated antibody (human CD3): 12.9 nM
- CD8 EC50 (nM); CD69/CD25 on human T cells, plate-coated antibody (human CD3): 13.8 nM

B7: mAb 128 (antibody, V domains shown)
VH: B6 VH with S97A, L107Y, N108Y, L111M
VL: EIVMTQSPATLSVSPGERATLSCRASQSVSSNLAWYQQKPGQAPRLLIYGASTRATGIPARFSGSGSGTEFTLTISSLQSEDFAVYYCQLYYNWPHFGQGTRLAIK
notes: VH and VL only
- Kd (human CD3e/d): 186 nM

B9: mAb 121 (antibody, V domains shown)
VH: B6 VH with A24T, D30A, G59D, N77K, Y95F, S97A, Y105H, L107Y, N108F, S110Y
VL: B7 VL with A9G, E17K, A43G, G50S, A51T, F83S, L90H, Y92N, A104E
- CD4 EC50 (nM); CD69/CD25 on human T cells, plate-coated antibody (human CD3): 12.3 nM
- CD8 EC50 (nM); CD69/CD25 on human T cells, plate-coated antibody (human CD3): 12.3 nM

B10: mAb 126 (antibody, V domains shown)
VH: B6 VH with D30N, A40V, G59D, S97A, L107Y, N108Y, S110Y, L111M
VL: B7 VL with S31I, Y92H, A104E
- CD4 EC50 (nM); CD69/CD25 on human T cells, plate-coated antibody (human CD3): 10.2 nM
- CD8 EC50 (nM); CD69/CD25 on human T cells, plate-coated antibody (human CD3): 11 nM

B15: mAb 118 (antibody, V domains shown)
VH: B6 VH
VL: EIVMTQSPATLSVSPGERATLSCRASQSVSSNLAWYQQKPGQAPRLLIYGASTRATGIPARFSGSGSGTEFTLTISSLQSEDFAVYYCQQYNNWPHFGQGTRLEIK
notes: VH and VL only
- Kd (human CD3e/d): 101 nM

B16: mAb 172 (antibody, V domains shown)
VH: EVQLVESGGGLVQPGRSLRLSCTTSGFTFDDYTMHWVRQVPGKGLEWVSDISWNSGSVGYADSVKGRFTISRDNAKNSLYLQMNSLRAEDTALYYCVKDSSGYGHYFHYYMDVWGKGTTVTVSS
VL: DIQMTQSPSSLSASVGDRVTITCRASQSISNYLNWYQVKPGKAPKVLIYAASSLQSGVPSRFSGSGSGTDFTLTISSLQPEDFVSYYCHQSYNAPITFGQGTRLESK
notes: VH and VL only
- Kd (human CD3e/d): 4.83 nM

B18: mAb 171 (antibody, V domains shown)
VH: EVQLVESGGGLVQPGRSLRLSCAASGFTFADYTMHWVRQAPGQGLEWVSGISWNSGSIDYADSVKGRFIISRDNAKKTLYLQMNSLRAEDTALYYCAKDSSGYGHYYFYYLDVWGKGTTVTVSS
VL: B7 VL with G50S, A51T, G66R, F83S, L90Q, Y92N, A104E
notes: VH and VL only
- Kd (human CD3e/d): 18.4 nM

B20: mAb 121 (antibody, V domains shown)
VH: B18 VH with A24T, Q43K, I69T, T78S, Y95F
VL: B7 VL with A9G, E17K, A43G, G50S, A51T, F83S, L90H, Y92N, A104E
notes: VH and VL only
- Kd (human CD3e/d): 21 nM

The next lines start with the values.

- CD4 EC50 (nM); CD69/CD25 on human T cells, plate-coated antibody (human CD3): 10.2 nM
- CD8 EC50 (nM); CD69/CD25 on human T cells, plate-coated antibody (human CD3): 10.3 nM
B2: mAb 127 (antibody, V domains shown)
VH: B1 VH with L18H, T55S, A60T, T71I, K79N, F82Y, Y106W
VL: B1 VL with L46I, S53N, G76S, S77T, Y87F, S93G

- CD4 EC50 (nM); CD69/CD25 on human T cells, plate-coated antibody (human CD3): 12.5 nM
- CD8 EC50 (nM); CD69/CD25 on human T cells, plate-coated antibody (human CD3): 12.5 nM
B3: mAb 129 (antibody, V domains shown)
VH: B1 VH with G10D, T59A, A60T, G68D, K79N, F82Y, Y106W
VL: B1 VL with Q3H, V15L, I21F, K45R, G76S, E81D, E105G, K107E

- CD4 EC50 (nM); CD69/CD25 on human T cells, plate-coated antibody (human CD3): 10.9 nM
- CD8 EC50 (nM); CD69/CD25 on human T cells, plate-coated antibody (human CD3): 10.8 nM
B4: mAb 130 (antibody, V domains shown)
VH: B1 VH with T55S, T59A, A60T, G68D, K79N, F82Y, Y106W
VL: B1 VL with Q3H, V15L, I21F, K39R, G76S, E105G

- CD4 EC50 (nM); CD69/CD25 on human T cells, plate-coated antibody (human CD3): 11.6 nM
- CD8 EC50 (nM); CD69/CD25 on human T cells, plate-coated antibody (human CD3): 11.7 nM
B8: mAb 128 (antibody, V domains shown)
VH: B6 VH with S97A, L107Y, N108Y, L111M
VL: B7 VL

- Kd (human CD3e/d): 19.4 nM
B11: mAb 162 (antibody, V domains shown)
VH: B6 VH with D31N, T33A, Q82E, M83L, S97A, L107Y, S110Y, L111M
VL: B7 VL with S30R, R61K, L90Y, A104E
notes: VH and VL only

- Kd (human CD3e/d): 15.2 nM
B12: mAb 160 (antibody, V domains shown)
VH: B16 VH with T23A, T24V, D30N, D50G, V58I, Y95F, V97A, F107Y, H108Y, K116R
VL: B7 VL with S30R, S31K, Y92N, A104E
notes: VH and VL only

- Kd (human CD3e/d): 9.72 nM
B13: mAb 126 (antibody, V domains shown)
VH: B6 VH with D30N, A40V, G59D, S97A, L107Y, N108Y, S110Y, L111M
VL: B7 VL with S31I, Y92H, A104E
notes: VH and VL only

- Kd (human CD3e/d): 71.9 nM
B14: mAb 170 (antibody, V domains shown)
VH: B6 VH with Q13R
VL: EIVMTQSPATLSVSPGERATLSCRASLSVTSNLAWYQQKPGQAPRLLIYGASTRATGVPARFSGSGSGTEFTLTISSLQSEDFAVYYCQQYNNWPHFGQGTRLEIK
notes: VH and VL only

- Kd (human CD3e/d): 7.11 nM
B17: mAb 173 (antibody, V domains shown)
VH: B16 VH with T23A, T24A
VL: B16 VL with A94T, S106I
notes: VH and VL only

- Kd (human CD3e/d): 6.26 nM
B19: mAb 167 (antibody, V domains shown)
VH: EVHLVESGGGLVQPGRSLRLSCAASGFTFDDYAMHWVRQAPGKGLEWVSGISWNSGTIGYADSVKGRFTISRDNAKNSLYLEMNSLRAEDTALYYCAKDSSGYGHYYHYYIDVWGTGTTVTVSS
VL: B7 VL with E17G, S30G, G50D, S63R, S77G, A104E
notes: VH and VL only

- Kd (human CD3e/d): 24.1 nM
B21: mAb 161 (antibody, V domains shown)
VH: B18 VH with F27I, Q43K, I69T, S85R
VL: B7 VL with S31N, G50S, A51T, G66R, F83S, L90Q, Y92N, A104E
notes: VH and VL only

- Kd (human CD3e/d): 10.3 nM
B22: mAb 158 (antibody, V domains shown)
VH: B18 VH with A40V, Q43K, I58V, I69T
VL: B7 VL with S26T, G50S, A51T, G66R, F83S, L90Q, Y92N, A104E
notes: VH and VL only

- Kd (human CD3e/d): 635 nM
B23: mAb 140 (antibody, V domains shown)
VH: QVQLVESGGGVVQPGRSLRLSCAASGFTFSTYGMHWVRQAPGKGLEWVAVIWYDGSHKYYADSVKGRFTISRDNSKNTLYLQMNSLRAEDTAVYYCARTGITGTTAYFYFDYWGQGTLVTVSS
VL: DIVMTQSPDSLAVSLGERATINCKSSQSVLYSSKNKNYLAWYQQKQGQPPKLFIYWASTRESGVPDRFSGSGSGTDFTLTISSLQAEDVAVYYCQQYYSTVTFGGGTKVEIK
notes: VH and VL only

- Kd (human CD3e/d): 3.49 nM
B24: mAb 176 (antibody, V domains shown)
VH: EVELVESGGGLVQPGRSLRLSCAASGFKFDDYTMHWVRLPPGKGLEWVSGISWNSGTIDYGDSVKGRFTISRDNAKNSLYLQMNSLRVEDTALYYCAKDTSGYGHYFYYYMDVWGKGTTVTVSS
VL: DIQMTQSPSSLSASIGDRVSITCRTSQIINNYLNWYQQKPGKAPKVLIYSASSLQSGVPSRFSGSGSGTDFTLTINSLQPEDFATYYCQQSYNFPITFGQGTRLELK
notes: VH and VL only
